Experimental data reported in publication doi:10.1101/2025.01.21.634180.

Molecular target: GIV (Gα-interacting vesicle-associated protein, also known as Girdin), endogenous (human (endogenous in THP1)) (UniProt Q3V6T2)
Sequence of UniProt Q3V6T2 (Q3V6T2 whole entry): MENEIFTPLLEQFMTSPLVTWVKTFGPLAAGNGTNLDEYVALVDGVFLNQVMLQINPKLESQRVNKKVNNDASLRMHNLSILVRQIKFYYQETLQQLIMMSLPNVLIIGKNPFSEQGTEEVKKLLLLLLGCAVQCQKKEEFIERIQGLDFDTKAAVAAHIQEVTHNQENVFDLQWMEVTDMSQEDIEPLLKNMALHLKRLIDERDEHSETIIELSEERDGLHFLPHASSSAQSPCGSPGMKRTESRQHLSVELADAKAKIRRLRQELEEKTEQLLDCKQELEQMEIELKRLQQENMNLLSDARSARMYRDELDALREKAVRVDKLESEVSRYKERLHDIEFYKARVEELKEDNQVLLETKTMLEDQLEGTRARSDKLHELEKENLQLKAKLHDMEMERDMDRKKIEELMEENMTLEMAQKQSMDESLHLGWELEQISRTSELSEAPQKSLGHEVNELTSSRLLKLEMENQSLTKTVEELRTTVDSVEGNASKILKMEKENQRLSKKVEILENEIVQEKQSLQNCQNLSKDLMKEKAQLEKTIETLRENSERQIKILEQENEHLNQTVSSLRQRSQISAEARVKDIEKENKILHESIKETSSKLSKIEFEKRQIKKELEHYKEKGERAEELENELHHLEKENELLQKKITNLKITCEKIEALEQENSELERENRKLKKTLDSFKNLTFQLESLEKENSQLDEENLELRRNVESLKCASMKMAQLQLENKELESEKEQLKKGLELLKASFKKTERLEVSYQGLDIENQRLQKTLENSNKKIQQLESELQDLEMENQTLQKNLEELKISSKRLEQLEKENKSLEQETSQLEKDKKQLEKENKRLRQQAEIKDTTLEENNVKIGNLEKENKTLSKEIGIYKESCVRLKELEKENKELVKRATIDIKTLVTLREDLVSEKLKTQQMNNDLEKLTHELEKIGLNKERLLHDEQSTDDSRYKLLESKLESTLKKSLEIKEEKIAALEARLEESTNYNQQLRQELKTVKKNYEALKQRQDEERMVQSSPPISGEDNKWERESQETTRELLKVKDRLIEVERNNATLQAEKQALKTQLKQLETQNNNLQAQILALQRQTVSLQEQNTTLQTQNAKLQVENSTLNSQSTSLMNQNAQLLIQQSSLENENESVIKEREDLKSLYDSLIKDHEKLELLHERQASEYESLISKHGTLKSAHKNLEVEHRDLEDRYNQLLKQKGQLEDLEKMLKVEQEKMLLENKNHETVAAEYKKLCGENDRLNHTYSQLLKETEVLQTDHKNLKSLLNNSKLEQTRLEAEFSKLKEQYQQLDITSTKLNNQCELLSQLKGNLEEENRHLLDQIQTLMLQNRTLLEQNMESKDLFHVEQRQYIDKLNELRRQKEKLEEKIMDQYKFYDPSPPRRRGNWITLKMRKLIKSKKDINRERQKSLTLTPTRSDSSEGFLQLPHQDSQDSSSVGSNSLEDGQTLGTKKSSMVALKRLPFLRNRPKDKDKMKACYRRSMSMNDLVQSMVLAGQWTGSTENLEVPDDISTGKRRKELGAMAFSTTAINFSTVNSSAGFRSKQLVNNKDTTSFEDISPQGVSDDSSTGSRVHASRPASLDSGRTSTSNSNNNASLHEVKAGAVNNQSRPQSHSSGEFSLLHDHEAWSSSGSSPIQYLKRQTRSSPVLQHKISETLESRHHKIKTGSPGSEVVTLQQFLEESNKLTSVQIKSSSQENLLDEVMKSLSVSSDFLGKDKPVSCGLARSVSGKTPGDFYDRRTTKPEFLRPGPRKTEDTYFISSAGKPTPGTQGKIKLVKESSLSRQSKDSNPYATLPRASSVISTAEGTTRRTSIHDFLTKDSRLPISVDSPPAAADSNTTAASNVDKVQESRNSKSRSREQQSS

Substance: HA-tagged NOD2–1007fs (from UniProt Q9HC29 1-1040) (natural protein)
- suppression of LPS (100 ng/ml)-induced NFκB activation by MDP (10 μg/ml) pretreatment, luciferase reporter assay in HeLa cells transfected with NOD2-1007fs (% protection): 20%
